# Experiments:
# [1] = molecular target: chimeric L1:P18I10 capsid protein (HPV16 L1 with the HIV-1 P18I10 peptide in the DE loop), VLPs (human papillomavirus type 16 | HIV-1) (UniProt P03101); assay: cross-linking; disulfide cross-linking seen by non-reducing SDS-PAGE; VLPs in Laemmli sample buffer without or with 5% 2-mercaptoethanol, room temperature, 24 h; blot with anti-HPV16 L1 CAMVIR-1
# [2] = molecular target: chimeric L1:T20 capsid protein (HPV16 L1 with the HIV-1 T20 peptide in the DE loop), VLPs (human papillomavirus type 16 | HIV-1) (UniProt P03101); assay: as above
Substance,percent of L1 disulfide bonded into dimers or pentamers [1] [%],percent of L1 disulfide bonded into dimers or pentamers [2] [%]
"chimeric L1:P18I10 capsid protein (HPV16 L1 with the HIV-1 P18I10 peptide in the DE loop), VLPs (from UniProt P03101 1-129; P03101 137-505)",70,
"chimeric L1:T20 capsid protein (HPV16 L1 with the HIV-1 T20 peptide in the DE loop), VLPs (from UniProt P03101 1-129; P03101 137-505)",,70

# — publication PMC9861546
